Data: US8460669B2, “Compositions and methods for identifying response targets and treating flavivirus infection responses” (Academia Sinica, priority 2005, dated 2013)
“Also recorded” adds a separate entry of the source.

Tests used:
[1] = Enzyme linked immunoassay of receptor.Fc fusions on immobilized GLPS-F3; type: binding, Ganoderma lucidum; conditions: GLPS-F3 100 ng/well; receptor.Fc 1 μg/ml
Procedure: The interactions of polysaccharides with receptor.Fc fusion proteins was further investigated by performing an enzyme-linked immunoassay, which was based on immobilizing GLPS-F3 through both hydrophilic and hydrophobic forces onto microtiter plates (polysytrene). In this format, the number of different receptor.Fc fusions for profiling was increased in comparison to Example 7. To optimize the quantity of GLPS-F3 for immobilization, various amounts (3-1000 ng/well, diluted in 100 mM Tris buffer, pH9.5) of biotinylated-GLPS-F3 (Biotin-GLPS-F3) were coated onto MaxiSorp StarWell microtiter plates (50 μL/well; Nunc). The plates were incubated overnight at 4° C., and then the wells were washed twice with TBST, followed by blocking with 200 μL blocking buffer (2% BSA/TBST) for 1 hour at room temperature. Peroxidase-conjugated avidin (1:5000 dilution, Vector Laboratories) and TMB (tetramethylbenzidine) substrate was then used for detection of immobilized biotinylated GLPS-F3.
The interaction between GLPS-F3 and receptor.Fc was then tested. […] Wells were incubated with 100 μL TMB substrate for 15 min after TBST washing and read at 450 nm in a Fusion plate reader (Perkin Elmer). […]

Dengue virus [2] = assay: ELISA of receptor.Fc interaction with Dengue virus; type: binding; conditions: for binding to DV pretreated with heat or dithiothreitol: 95° C. 5 min or DTT 0.1 M; for binding to DV pretreated with PNGaseF: PNGaseF 500 U; for interaction of receptor.Fc with Dengue virus (ELISA): receptor.Fc 1 μg, DV 5×10^6
Procedure: One μg of each receptor.Fc fusion protein was coated onto microtiter plates overnight at 4° C. DV (5×10^6 particles) of strain 16681 (a DEN2 strain) in binding buffer (1% BSA, 2 mM CaCl2, 2 mM MgCl2, 50 mM Tris-HCl pH 7.5, 150 mM NaCl) was then added to the plates and the plates were incubated for 2 hours. After washing non-bound virus, a biotinylated anti-DEN2 envelope protein antibody (Wu et al., J Virol, 2002. 76(8): p. 3596-604) was applied to bind to the virus for 1 hour. Diluted horseradish peroxidase-conjugated streptavidin was then added to the plates, followed by a 1 hour incubation. TMB substrate was then added and the plates were read using an ELISA reader at OD450 nm.
The microtiter plate assay was repeated in the presence of EDTA (10 mM) to chelate Ca^++ cations.
The microtiter plate assay was also repeated for DVLR1/CLEC5A.Fc fusion protein with DV particles (5×10^6) that had been 1) preincubated with 500 U of the glycosidase PNGaseF (New England Biolabs, Inc.) overnight at 37° C.; or 2) treated with dithiothreitol (DTTI) (0.1M); or 3) incubated at 95° C. for 5 minutes; or 4) UV irradiated for 5 minutes. The results are shown in FIG. 8D (asterisks indicate where the binding affinity of DVLR1/CLEC5A.Fc fusion protein is altered by modification of the virus relative to non-treated virus; ** p<0.01, *** p<0.001, Student's t test). […]

Dengue virus [3] = assay: Immunoprecipitation of Dengue virus with receptor.Fc; type: binding; conditions: receptor.Fc 5 μg; DV 5×10^6; listed as DVLR1/CLEC5A.Fc
Procedure: The results are depicted in FIG. 8A (** indicates p<0.01, *** indicates p<0.001 (Student's t test)). […] Specifically, 5×10^6 Dengue virus particles were incubated with 5 μg of each protein, and then Protein A beads were added. The resulting immunocomplexes were washed, separated by SDS-PAGE, and transferred onto nitrocellulose membrane. The membrane was then probed with biotinylated anti-DEN2 envelope protein antibody and developed with horseradish peroxidase-conjugated streptavidin.
In FIG. 16b, complexes of DV (5×10^6 PFU) with receptor.Fc (5 μg) were immunoprecipitated and detected on westerns with mAb to DV envelope (E) protein. […] FIGS. 16d and 16e show sugar competition assays wherein both DC-SIGN (CLEC4L) and DVLR1/CLEC5A increase DV binding to human 293T cells (FIG. 16d), while addition of sugars inhibits biotinylated DV binding to DC-SIGN- (left panel) or DLVR1/CLEC5A- (right panel) transfected 293T cells in a dose-dependent manner as determined by flow cytometry (FIG. 16e). According to FIG. 16e, MFI represents mean fluorescence intensity. Units (U) for monosaccharide (mannose and fucose) and polysaccharide (mannan) are mM and mg/ml, respectively. […] Data are expressed as the mean±s.d. of three independent experiments. Two-tailed, Student's t-tests were performed. […]

JEV = assay: ELISA of DVLR1/CLEC5A.Fc interaction with JEV; type: binding, Japanese encephamyelitis virus; conditions: 1 μg; JEV 5×10^6 PFU
Procedure: Like with DV, JEV follows a similar virus infection response pattern, which is believed to be the same or similar in all flaviviruses. […] (1 μg), with JEV and DV (5×10^6 PFU), respectively, were determined by ELISA. DV interacts with human DVLR1/CLEC5A (187 amino acid in length) SEQ ID NO: 72, but not the alternatively spliced form sDVLR1/CLEC5A (aa 43-65 is deleted). SEQ ID NO: 73. […] DAP12 in DV-infected macrophages were precipitated by anti-DAP12 mAb, blotted to nitrocellulose paper after fractionation on SDS-PAGE, followed by incubation with antibodies against phosphotyrosine and DAP12, respectively. JEV-induced DAP12 phosphorylation (m.o.i.=5) is inhibited by pLL3.7/DVLR1/CLEC5A. […] JEV-induced TNF-α secretion is inhibited by […] mAb (right). Data are expressed as the mean±s.d. of three independent experiments.

B1: Fc.MDL-1: extracellular domain of human DVLR1/CLEC5A (MDL-1) fused to the Fc portion of human IgG1 (protein)
chain: MNWHMIISGLIVVVLKVVGMTLFLLYFPQIFNKSNDGFTTTRSYGTVSQIFGSSSPSPNGFITTRSYGTVCPKDWEFYQARCFFLSTSESSWNESRDFCKGKGSTLAIVNTPEKLFLQDITDAEKYFIGLIYHREEKRWRWINNSVFNGNVTNQNQNFNCATIGLTKTFDAASCDISYRRICEKNAK
With B1 the “binding ability to GLPS-F3” value [1] was “minimal binding ability”, the “binding to DV pretreated with heat or dithiothreitol” value (Dengue virus [2]) was “abolish” and the “binding to DV pretreated with heat or dithiothreitol” value (Dengue virus [2]; listed as DVLR1/CLEC5A.Fc) was “almost completely inhibited”. For the same molecule, the “Ca^++ dependence of binding to Dengue virus” value (Dengue virus [2]; EDTA 10 mM) was “Ca^++ independent; also recorded: no effect”, the “binding to DV pretreated with PNGaseF” value (Dengue virus [2]) was “substantially reduced” and the “binding to DV pretreated with PNGaseF” value (Dengue virus [2]; listed as DVLR1/CLEC5A.Fc) was “inhibited DVLR1/CLEC5A.Fc interaction significantly”. For the same molecule, the “interaction of receptor.Fc with Dengue virus (ELISA)” value (Dengue virus [2]) was “binds; also recorded: interacts”, the “interaction of receptor.Fc with Dengue virus (ELISA)” value (Dengue virus [2]; listed as DVLR1/CLEC5A.Fc) was “able to capture DV2” and the “immunoprecipitation of Dengue virus (E protein detected)” value (Dengue virus [3]) was “able to immunoprecipitate DV; also recorded: detected”. For the same molecule, the “interaction with JEV (ELISA)” value (JEV) was “not”.
